Here are results for one protein from article PMC3795569, “Crystal structure of the N-terminal domain of MinC dimerized via domain swapping” (Journal of Synchrotron Radiation, 2013).

The data set deals with the molecule itself. Briefly: SEC; size-exclusion chromatography of EcoMinCNTD in a broad range of protein concentrations. (In general: Size exclusion chromatography separates by hydrodynamic size, large species first.)

B1: Escherichia coli MinC N-terminal domain (EcoMinCNTD), residues 1-105 (domain or fragment, UniProt P18196 1-105, looked up)
chain: MSNTPIELKGSSFTLSVVHLHEAEPKVIHQALEDKIAQAPAFLKHAPVVLNVSALEDPVNWSAMHKAVSATGLRVIGVSGCKDAQLKAEIEKMGLPILTEGKEKA
notes: MinC (septum site-determining protein), Escherichia coli, N-terminal domain, residues 1-105; amplified from E. coli genomic DNA (ATCC No. 700926D-5); Cloned into a modified pET-28a vector (BamHI/XhoI); The printed molecular weight is 11863 Da; also called unfused-EcoMinCNTD; source: E. coli BL21 (DE3), purified (Ni-NTA, TEV cleavage, size-exclusion chromatography)
As a reminder, the stoichiometry N is a count of units in the complex or per binding partner. As for B1, the “stoichiometry N” value stood at 2.
